Source: paper PMC10397247

What was measured:
P5A-bA = molecular target: T1, P5A-bA; experiment: two-hybrid library CCNG1;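 further: natural log of median RNA to DNA barcode read ratio; higher means stronger binding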
T1 chain: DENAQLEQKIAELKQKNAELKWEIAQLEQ

P6A-bA = molecular target: T2, P6A-bA; experiment: two-hybrid library CCNG1;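 further: natural log of median RNA to DNA barcode read ratio; higher means stronger binding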
T2 chain: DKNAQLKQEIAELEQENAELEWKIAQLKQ

P7A-bA = molecular target: T3, P7A-bA; experiment: two-hybrid library CCNG1;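 further: natural log of median RNA to DNA barcode read ratio; higher means stronger binding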
T3 chain: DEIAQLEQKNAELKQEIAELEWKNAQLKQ

P8A-bA = molecular target: T4, P8A-bA; experiment: two-hybrid library CCNG1;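 further: natural log of median RNA to DNA barcode read ratio; higher means stronger binding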
T4 chain: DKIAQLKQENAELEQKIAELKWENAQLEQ

P9A-bA = molecular target: T5, P9A-bA; experiment: two-hybrid library CCNG1
T5 chain: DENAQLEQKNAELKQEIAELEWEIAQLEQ

4H2627-bA = molecular target: T6, 4H2627-bA; experiment: two-hybrid library CCNG1
T6 chain: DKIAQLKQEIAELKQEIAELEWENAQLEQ

4H2673-bA = molecular target: T7, 4H2673-bA; experiment: two-hybrid library CCNG1
T7 chain: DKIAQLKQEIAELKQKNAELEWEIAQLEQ

4H2702-bA = molecular target: T8, 4H2702-bA; experiment: two-hybrid library CCNG1
T8 chain: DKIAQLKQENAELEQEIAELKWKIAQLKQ

4H3010-bA = molecular target: T9, 4H3010-bA; experiment: two-hybrid library CCNG1
T9 chain: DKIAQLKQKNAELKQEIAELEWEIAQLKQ

4H3112-bA = molecular target: T10, 4H3112-bA; experiment: two-hybrid library CCNG1
T10 chain: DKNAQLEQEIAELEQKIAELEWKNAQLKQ

4H3427-bA = molecular target: T11, 4H3427-bA; experiment: two-hybrid library CCNG1
T11 chain: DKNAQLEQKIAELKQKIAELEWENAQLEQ

4H346-bA = molecular target: T12, 4H346-bA; experiment: two-hybrid library CCNG1
T12 chain: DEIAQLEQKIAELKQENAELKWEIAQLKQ

4H3926-bA = molecular target: T13, 4H3926-bA; experiment: two-hybrid library CCNG1
T13 chain: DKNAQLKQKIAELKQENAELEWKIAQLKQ

4H4073-bA = molecular target: T14, 4H4073-bA; experiment: two-hybrid library CCNG1
T14 chain: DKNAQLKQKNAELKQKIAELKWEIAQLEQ

4H457-bA = molecular target: T15, 4H457-bA; experiment: two-hybrid library CCNG1; details: mean of both orientations
T15 chain: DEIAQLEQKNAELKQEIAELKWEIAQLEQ

4H575-bA = molecular target: T16, 4H575-bA; experiment: two-hybrid library CCNG1
T16 chain: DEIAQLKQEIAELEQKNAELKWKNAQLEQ

4H683-bA = molecular target: T17, 4H683-bA; experiment: two-hybrid library CCNG1
T17 chain: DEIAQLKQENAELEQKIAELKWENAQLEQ

4H754-bA = molecular target: T18, 4H754-bA; experiment: two-hybrid library CCNG1
T18 chain: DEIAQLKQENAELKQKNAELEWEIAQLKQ

4H780-bA = molecular target: T19, 4H780-bA; experiment: two-hybrid library CCNG1
T19 chain: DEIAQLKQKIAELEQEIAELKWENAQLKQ

4H797-bA = molecular target: T20, 4H797-bA; experiment: two-hybrid library CCNG1
T20 chain: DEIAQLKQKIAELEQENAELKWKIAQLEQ

4H855-bA = molecular target: T21, 4H855-bA; experiment: two-hybrid library CCNG1
T21 chain: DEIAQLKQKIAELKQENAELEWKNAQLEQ

4H918-bA = molecular target: T22, 4H918-bA; experiment: two-hybrid library CCNG1
T22 chain: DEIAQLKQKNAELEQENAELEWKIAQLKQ

4H953-bA = molecular target: T23, 4H953-bA; experiment: two-hybrid library CCNG1
T23 chain: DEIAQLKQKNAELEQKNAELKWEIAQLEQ

4H968-bA = molecular target: T24, 4H968-bA; experiment: two-hybrid library CCNG1
T24 chain: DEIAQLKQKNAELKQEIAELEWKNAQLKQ

4H967-bA = molecular target: T25, 4H967-bA; experiment: two-hybrid library CCNG1
T25 chain: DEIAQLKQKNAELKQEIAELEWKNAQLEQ

O15-bA = molecular target: T26, O15-bA; experiment: two-hybrid library CCNG1
T26 chain: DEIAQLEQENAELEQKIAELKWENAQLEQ

4H2512-AA = molecular target: T27, 4H2512-AA; experiment: two-hybrid library CCmax
T27 chain: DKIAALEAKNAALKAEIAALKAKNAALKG

4H2646-AA = molecular target: T28, 4H2646-AA; experiment: two-hybrid library CCmax; details: mean of both orientations
T28 chain: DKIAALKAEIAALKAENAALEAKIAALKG

4H2687-AA = molecular target: T29, 4H2687-AA; experiment: two-hybrid library CCmax; details: mean of both orientations
T29 chain: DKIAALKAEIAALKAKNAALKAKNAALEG

4H2705-AA = molecular target: T30, 4H2705-AA; experiment: two-hybrid library CCmax
T30 chain: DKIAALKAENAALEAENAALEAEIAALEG

4H2758-AA = molecular target: T31, 4H2758-AA; experiment: two-hybrid library CCmax
T31 chain: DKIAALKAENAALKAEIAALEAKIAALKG

4H278-AA = molecular target: T32, 4H278-AA; experiment: two-hybrid library CCmax; details: mean of both orientations
T32 chain: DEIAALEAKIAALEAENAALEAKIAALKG

4H2873-AA = molecular target: T33, 4H2873-AA; experiment: two-hybrid library CCmax; details: mean of both orientations
T33 chain: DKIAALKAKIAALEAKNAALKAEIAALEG

4H2985-AA = molecular target: T34, 4H2985-AA; experiment: two-hybrid library CCmax; details: mean of both orientations
T34 chain: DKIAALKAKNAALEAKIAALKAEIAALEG

4H3134-AA = molecular target: T35, 4H3134-AA; experiment: two-hybrid library CCmax; details: mean of both orientations
T35 chain: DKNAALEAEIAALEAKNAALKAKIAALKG

4H3409-AA = molecular target: T36, 4H3409-AA; experiment: two-hybrid library CCmax; details: mean of both orientations
T36 chain: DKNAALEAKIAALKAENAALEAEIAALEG

4H3625-AA = molecular target: T37, 4H3625-AA; experiment: two-hybrid library CCmax; details: mean of both orientations
T37 chain: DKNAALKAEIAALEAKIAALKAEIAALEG

4H390-AA = molecular target: T38, 4H390-AA; experiment: two-hybrid library CCmax; details: mean of both orientations
T38 chain: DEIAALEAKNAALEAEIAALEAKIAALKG

4H3940-AA = molecular target: T39, 4H3940-AA; experiment: two-hybrid library CCmax; details: mean of both orientations
T39 chain: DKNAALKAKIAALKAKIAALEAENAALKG

4H510-AA = molecular target: T40, 4H510-AA; experiment: two-hybrid library CCmax; details: mean of both orientations
T40 chain: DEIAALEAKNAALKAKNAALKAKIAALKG

4H775-AA = molecular target: T41, 4H775-AA; experiment: two-hybrid library CCmax; details: mean of both orientations
T41 chain: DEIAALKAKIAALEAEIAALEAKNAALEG

4H816-AA = molecular target: T42, 4H816-AA; experiment: two-hybrid library CCmax; details: mean of both orientations
T42 chain: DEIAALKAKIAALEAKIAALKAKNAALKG

4H87-AA = molecular target: T43, 4H87-AA; experiment: two-hybrid library CCmax; details: mean of both orientations
T43 chain: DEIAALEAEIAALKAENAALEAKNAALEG

DENAQLEQKIAELKQKNAELKWEIAQLEQ [P5A-bA]
interaction score (P5A-bA): -1.22 | interaction score (P6A-bA): 2.33 | interaction score (P7A-bA): -1.32 | interaction score (P8A-bA): 0.0376 | interaction score (P9A-bA): -0.7

DKIAQLKQEIAELKQEIAELEWENAQLEQ [4H2627-bA]
interaction score (4H2627-bA): 0.441 | interaction score (4H2673-bA): -0.531 | interaction score (4H2702-bA): 0.286 | interaction score (4H3010-bA): -0.0123 | interaction score (4H3112-bA): 0.764 | interaction score (4H3427-bA): 1.03 | interaction score (4H346-bA): -1.21 | interaction score (4H3926-bA): -0.308 | interaction score (4H4073-bA): 1.07 | interaction score (4H457-bA): -0.508 | interaction score (4H575-bA): 0.64 | interaction score (4H683-bA): -0.856 | interaction score (4H754-bA): -1.42 | interaction score (4H780-bA): -0.421 | interaction score (4H797-bA): -1.1 | interaction score (4H855-bA): -1.42 | interaction score (4H918-bA): -1.03 | interaction score (4H953-bA): -0.555 | interaction score (4H968-bA): -0.842

DEIAQLKQKNAELKQEIAELEWKNAQLEQ [4H967-bA]
interaction score (4H967-bA): -0.153 | interaction score (O15-bA): 1.66

DKIAALEAKNAALKAEIAALKAKNAALKG [4H2512-AA]
interaction score (4H2512-AA): 0.206 | interaction score (4H2646-AA): -1.05 | interaction score (4H2687-AA): -1.95 | interaction score (4H2705-AA): -0.766 | interaction score (4H2758-AA): -0.837 | interaction score (4H278-AA): 2.22 | interaction score (4H2873-AA): -1.36 | interaction score (4H2985-AA): 0.303 | interaction score (4H3134-AA): -0.978 | interaction score (4H3409-AA): 1.21 | interaction score (4H3625-AA): -1.5 | interaction score (4H390-AA): 0.0427 | interaction score (4H3940-AA): -1.72 | interaction score (4H510-AA): -1.85 | interaction score (4H775-AA): -1.11 | interaction score (4H816-AA): -1.79 | interaction score (4H87-AA): -0.485
